From US20100216969A1 (BIONANOPHOTNICS A S, published 2010) come the findings set out here.

The assay deals with T1, Lysozyme (Sigma L-7651) (UniProt P00698 19-147).
T1 construct: Used as 2 uM solution in 25 mM Tris pH 7.0; also called model protein
Put plainly: TIRF flow chamber, tryptophan fluorescence (excitation 295 nm, emission 350 nm); lysozyme loaded over the peptide-coated quartz slide with the light off, then Tween20/PBS and buffer rinses. The source says: A TIRF system (BioElectroSpec, Inc., Harrisburg, Pa.) coupled with a fluorescence spectrophotometer (PTI QM-2000 from Photon Technology Int., Lawrenceville, N.J.) with a 75W Xenon arc source was used. The PTI instrument excitation and emission slits were set at 6 nm. The flow chamber was comprised by a “sandwich” consisting of a TIRF quartz prism, a TIRF quartz slide (with the sample surface), a 10 μm polyureathane gasket (comprising the chamber thickness), and a back block with holes to channel the solution through the flow chamber. In this setup, the excitation light travels through the prism and slide, hits the interface between slide and solution, leading to total internal reflection at the interface. The reflected beam generates an evanescent electromagnetic field in the centre of the TIRF slide—this area of the TIRF slide serves thus as the sensor surface. Only fluorophores that are present at the surface and in close proximity of the surface (within the evanescent field) are excited and fluoresce.

Bridge positions count the residues as written; N and C are the ends. Ends that are not written are not given here.

T1 sequence (P00698 19-147 limits assumed): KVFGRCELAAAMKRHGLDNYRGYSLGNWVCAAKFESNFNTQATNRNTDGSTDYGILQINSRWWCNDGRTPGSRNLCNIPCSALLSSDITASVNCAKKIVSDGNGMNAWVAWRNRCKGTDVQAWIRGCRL

B1: synthetic disulphide-peptide KAMHAWGCGGGC-NH2 (SEQ ID NO 9) (peptide)
peptide: KAMHAWGCGGGC-NH2
modifications: disulfide 8-12; also: attached to aldehyde quartz surface via lysine amine and/or N-terminal amine (Schiff bond)
notes: Loaded at 10 uM onto an aldehyde-coated TIRF quartz slide; It stood in the assay as the surface coating; also called peptide linker
On to B1, for which the binding result is on record as “no binding (tested: 2 µM)”.
